Data reported in patent US20240124607A1 (Merck Sharp & Dohme, published 2024).

T1: human FcγRIIB (human, UniProt P31994 43-217, limits assumed)
T1 sequence (looked up): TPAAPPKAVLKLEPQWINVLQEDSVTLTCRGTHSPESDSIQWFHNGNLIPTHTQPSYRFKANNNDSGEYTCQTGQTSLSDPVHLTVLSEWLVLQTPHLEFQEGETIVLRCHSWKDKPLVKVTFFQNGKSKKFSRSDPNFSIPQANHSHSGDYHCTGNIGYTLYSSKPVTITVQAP

T2: human FcγRIIA H131 (human, UniProt P12318 34-218, limits assumed)
T2 sequence (looked up): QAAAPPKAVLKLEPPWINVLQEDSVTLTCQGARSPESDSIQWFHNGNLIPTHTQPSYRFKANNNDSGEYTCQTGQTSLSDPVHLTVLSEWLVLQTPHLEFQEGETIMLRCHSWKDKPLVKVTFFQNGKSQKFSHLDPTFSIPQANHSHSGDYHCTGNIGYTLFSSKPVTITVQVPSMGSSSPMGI

T3: human FcγRIIA R131 (human, UniProt P12318 34-218, limits assumed)
T3 sequence (looked up): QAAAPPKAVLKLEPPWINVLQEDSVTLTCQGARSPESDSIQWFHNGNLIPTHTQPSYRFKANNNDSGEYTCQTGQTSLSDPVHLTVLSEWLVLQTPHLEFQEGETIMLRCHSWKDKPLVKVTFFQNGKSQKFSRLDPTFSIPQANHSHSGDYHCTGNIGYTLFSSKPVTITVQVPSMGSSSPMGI

T4: Human CEACAM5 (K398) (human, UniProt P06731 35-685, limits assumed)
T4 construct: also called K398 allele
T4 sequence: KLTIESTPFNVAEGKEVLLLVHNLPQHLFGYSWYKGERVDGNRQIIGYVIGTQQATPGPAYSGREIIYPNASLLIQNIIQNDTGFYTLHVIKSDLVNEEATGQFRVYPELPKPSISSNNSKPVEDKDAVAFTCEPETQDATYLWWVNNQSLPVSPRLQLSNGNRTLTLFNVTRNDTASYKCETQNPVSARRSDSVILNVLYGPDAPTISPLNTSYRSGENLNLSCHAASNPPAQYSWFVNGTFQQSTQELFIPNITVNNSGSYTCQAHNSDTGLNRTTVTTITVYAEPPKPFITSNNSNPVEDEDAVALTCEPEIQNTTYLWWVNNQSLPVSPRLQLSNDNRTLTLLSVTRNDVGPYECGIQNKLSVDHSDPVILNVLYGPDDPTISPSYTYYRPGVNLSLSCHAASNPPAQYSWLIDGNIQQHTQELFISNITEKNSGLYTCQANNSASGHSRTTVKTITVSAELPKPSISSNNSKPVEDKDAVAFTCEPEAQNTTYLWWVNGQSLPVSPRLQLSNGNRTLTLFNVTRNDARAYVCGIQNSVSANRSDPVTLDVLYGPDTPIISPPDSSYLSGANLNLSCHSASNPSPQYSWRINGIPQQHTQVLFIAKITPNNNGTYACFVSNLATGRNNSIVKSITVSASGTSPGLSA

B1: AB0621 F3' CEACAM5 TriNKET (bispecific antibody, human IgG1, kappa)
chain: DIVMTQSPDSLAVSLGERATINCKSSHSLLYGNFQNNYLAWYQQKPGQPPKLLIYWASTRESGVPDRFSGSGSGTDFTLTISSLQAEDVAVYYCQQYYSYPYTFGCGTKLEIKGGGGSGGGGSGGGGSGGGGSQVQLVQSGAEVKKPGASVKVSCKASGYTFTAYTIHWVRQAPGQCLEWMGYINPSSGYTEYNQKFKDRTTLTADTSISTAYMELSRLRSDDTAVYYCTREGGLLWFDYWGQGTLVTVSSGSDKTHTCPPCPAPELLGGPSVFLFPPKPKDTLMISRTPEVTCVVVDVSHEDPEVKFNWYVDGVEVHNAKTKPREEQYNSTYRVVSVLTVLHQDWLNGKEYKCKVSNKALPAPIEKTISKAKGQPREPRVYTLPPCRDELTKNQVSLTCLVKGFYPSDIAVEWESNGQPENNYKTTPPVLVSDGSFTLYSKLTVDKSRWQQGNVFSCSVMHEALHNHYTQKSLSLSPG
heavy: EVQLVESGGGLVKPGGSLRLSCAASGFTFSSYSMNWVRQAPGKGLEWVSSISSSSSYIYYADSVKGRFTISRDNAKNSLYLQMNSLRAEDTAVYYCARGAPIGAAAGWFDPWGQGTLVTVSSASTKGPSVFPLAPSSKSTSGGTAALGCLVKDYFPEPVTVSWNSGALTSGVHTFPAVLQSSGLYSLSSVVTVPSSSLGTQTYICNVNHKPSNTKVDKKVEPKSCDKTHTCPPCPAPELLGGPSVFLFPPKPKDTLMISRTPEVTCVVVDVSHEDPEVKFNWYVDGVEVHNAKTKPREEQYNSTYRVVSVLTVLHQDWLNGKEYKCKVSNKALPAPIEKTISKAKGQPREPQVCTLPPSRDELTENQVSLTCLVKGFYPSDIAVEWESNGQPENNYKTTPPVLDSDGSFFLYSWLTVDKSRWQQGNVFSCSVMHEALHNHYTQKSLSLSPG
light: DIQMTQSPSSVSASVGDRVTITCRASQGISSWLAWYQQKPGKAPKLLIYAASSLQSGVPSRFSGSGSGTDFTLTISSLQPEDFATYYCQQGVSFPRTFGGGTKVEIKRTVAAPSVFIFPPSDEQLKSGTASVVCLLNNFYPREAKVQWKVDNALQSGNSQESVTEQDSKDSTYSLSSTLTLSKADYEKHKVYACEVTHQGLSSPVTKSFNRGEC
B2: AB0264 F3' CEACAM5 TriNKET (bispecific antibody, human IgG1, kappa)
chain: DIVMTQSPDSLAVSLGERATINCKSSHSLLYGNFQNNYLAWYQQKPGQPPKLLIYWASTRESGVPDRFSGSGSGTDFTLTISSLQAEDVAVYYCQQYYSYPYTFGCGTKLEIKGGGGSGGGGSGGGGSGGGGSQVQLVQSGAEVKKPGASVKVSCKASGYTFTAYTIHWVRQAPGQCLEWMGYINPSSGYTEYNQKFKDRTTLTADTSIPTAYMELSRLRSDDTAVYYCTREGGLLWFDYWGQGTLVTVSSGSDKTHTCPPCPAPELLGGPSVFLFPPKPKDTLMISRTPEVTCVVVDVSHEDPEVKFNWYVDGVEVHNAKTKPREEQYNSTYRVVSVLTVLHQDWLNGKEYKCKVSNKALPAPIEKTISKAKGQPREPRVYTLPPCRDELTKNQVSLTCLVKGFYPSDIAVEWESNGQPENNYKTTPPVLVSDGSFTLYSKLTVDKSRWQQGNVFSCSVMHEALHNHYTQKSLSLSPG
heavy: EVQLVESGGGLVKPGGSLRLSCAASGFTFSSYSMNWVRQAPGKGLEWVSSISSSSSYIYYADSVKGRFTISRDNAKNSLYLQMNSLRAEDTAVYYCARGAPIGAAAGWFDPWGQGTLVTVSSASTKGPSVFPLAPSSKSTSGGTAALGCLVKDYFPEPVTVSWNSGALTSGVHTFPAVLQSSGLYSLSSVVTVPSSSLGTQTYICNVNHKPSNTKVDKKVEPKSCDKTHTCPPCPAPELLGGPSVFLFPPKPKDTLMISRTPEVTCVVVDVSHEDPEVKFNWYVDGVEVHNAKTKPREEQYNSTYRVVSVLTVLHQDWLNGKEYKCKVSNKALPAPIEKTISKAKGQPREPQVCTLPPSRDELTENQVSLTCLVKGFYPSDIAVEWESNGQPENNYKTTPPVLDSDGSFFLYSWLTVDKSRWQQGNVFSCSVMHEALHNHYTQKSLSLSPG
light: DIQMTQSPSSVSASVGDRVTITCRASQGISSWLAWYQQKPGKAPKLLIYAASSLQSGVPSRFSGSGSGTDFTLTISSLQPEDFATYYCQQGVSFPRTFGGGTKVEIKRTVAAPSVFIFPPSDEQLKSGTASVVCLLNNFYPREAKVQWKVDNALQSGNSQESVTEQDSKDSTYSLSSTLTLSKADYEKHKVYACEVTHQGLSSPVTKSFNRGEC

Legend:
Cyno FcRn = Cyno FcRn (cynomolgus monkey, UniProt Q8SPV9 24-297; Q8SPW0 21-119, limits assumed); test: SPR, anti-kappa capture, 25C, pH 6.0; pH 6.0
Experimental: Anti-kappa light chain antibody was immobilized onto a CM5 chip following a standard amine-coupling protocol. AB0621 was captured onto the chip and human or cynomolgus FcRn was titrated from 2000 nM as 2-fold serial dilutions. Association was monitored for 120 sec and dissociation was monitored for 180 sec. Assays were run at 25° C. at both pH 7.4 and pH 6.0. The surface of the chip was regenerated with two pulses of 10 mM glycine pH 1.5 for 20 sec at 30 μL/min followed by 10 mM NaOH for 20 sec at 30 μL/min.

human FcγRIIB = target: T1, human FcγRIIB; test: SPR, AB0621 on Protein A chip, 25C, pH 7.4; reference not named
Experimental: (§1) AB0621 was captured onto a Protein A chip (Cytiva, #29127556). Human FcγRs were titrated over captured AB0621 as 3-fold serial dilutions starting from 300 nM for FcγRI, 1000 nM for FcγRIIA R131 and H131, and 3000 nM for FcγRIIB and FcγRIIIB. Association was monitored for 120 sec and dissociation was monitored for 180 sec. Assays were run at 25° C. at pH 7.4. The surface of the chip was regenerated with 10 mM glycine pH 1.5 for 20 sec at 30 μL/min.

human FcγRI = human FcγRI (human, UniProt P12314 16-288, limits assumed); test: as above
Experimental: as §1

human FcγRIIA H131 = target: T2, human FcγRIIA H131; test: as above
Experimental: as §1

human FcγRIIA R131 = target: T3, human FcγRIIA R131; test: as above
Experimental: as §1

Cynomolgus CEACAM5 [1] = target: T5, Cynomolgus CEACAM5 (cynomolgus monkey); test: SPR, anti-hFc capture, 37C, pH 6.0
T5 construct: also called cyno CEACAM5
Experimental: (§2) To determine the affinity and cross-reactivity of CEACAM5 TriNKET molecules, AB0411, AB0466, or AB0621 TriNKETs were captured using an anti-human Fc capture antibody (Cytiva, #BR100839) immobilized onto a Biacore CM5 standard surface sensor chip following manufacturer instructions. Human or cynomolgus CEACAM5 were titrated over captured AB0411, AB0466, and AB0621 as 2-fold serial dilutions starting from 300 nM. Association was monitored for 300 sec and dissociation was monitored for 600 sec. The assay was run at 37° C. at pH 7.4 and 6.0. The surface of the CM5 chip was regenerated with 10 mM glycine pH 1.5 for 20 sec at 100 μL/min.

Cynomolgus CEACAM5 [2] = target: T5, Cynomolgus CEACAM5; test: SPR, anti-hFc capture, 37C, pH 7.4
Experimental: as §2

Human CEACAM5 (K398) = target: T4, Human CEACAM5 (K398); test: SPR, anti-hFc capture, 37C, pH 7.4
Experimental: as §2

Cyno FcRn, sequence (Q8SPV9 24-297 limits assumed, chain 1 of 2): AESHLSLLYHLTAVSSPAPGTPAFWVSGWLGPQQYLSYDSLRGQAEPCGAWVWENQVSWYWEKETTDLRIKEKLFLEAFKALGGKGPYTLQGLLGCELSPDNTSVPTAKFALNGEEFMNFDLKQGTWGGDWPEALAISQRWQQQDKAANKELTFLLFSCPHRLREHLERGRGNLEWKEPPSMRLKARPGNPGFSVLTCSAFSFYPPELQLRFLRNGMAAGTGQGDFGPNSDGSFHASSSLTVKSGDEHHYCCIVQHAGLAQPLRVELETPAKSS
Cyno FcRn, sequence (Q8SPW0 21-119 limits assumed, chain 2 of 2): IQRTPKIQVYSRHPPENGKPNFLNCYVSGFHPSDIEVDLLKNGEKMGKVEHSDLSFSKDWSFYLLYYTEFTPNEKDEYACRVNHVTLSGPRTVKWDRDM
human FcγRI, sequence (P12314 16-288 limits assumed): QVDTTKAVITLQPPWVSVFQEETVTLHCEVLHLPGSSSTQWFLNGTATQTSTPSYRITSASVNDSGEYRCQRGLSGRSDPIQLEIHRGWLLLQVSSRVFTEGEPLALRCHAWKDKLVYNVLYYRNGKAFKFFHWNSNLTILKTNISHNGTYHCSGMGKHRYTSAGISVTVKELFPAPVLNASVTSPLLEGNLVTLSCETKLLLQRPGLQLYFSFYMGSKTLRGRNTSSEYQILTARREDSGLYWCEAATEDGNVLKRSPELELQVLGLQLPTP

Row | Binder | Kd (Cyno FcRn) [nM] | KD/KD ref (human FcγRIIB) [fold] | KD/KD ref (human FcγRI) [fold] | KD/KD ref (human FcγRIIA H131) [fold] | KD/KD ref (human FcγRIIA R131) [fold] | Kd (Cynomolgus CEACAM5 [1]) [nM] | kon (Cynomolgus CEACAM5 [1]) [M⁻¹ s⁻¹] | Kd (Cynomolgus CEACAM5 [2]) [nM] | kon (Cynomolgus CEACAM5 [2]) [M⁻¹ s⁻¹] | Kd (Human CEACAM5 (K398)) [nM] | kon (Human CEACAM5 (K398)) [M⁻¹ s⁻¹]
1 | B1 | 310 | 0.94 | 0.64 | 0.68 | 0.68 | 6.5 | 130000 | 14 | 61000 | – | –
2 | B2 | – | – | – | – | – | – | – | – | – | 13 | 91000
